The assay addresses T1, GST-UFL1 (human, UniProt O94874 1-794).
T1 construct: UFL1, human, E3 ligase for ufmylation; purified recombinant GST-UFL1; The end of the GST tag is read from the printed name 'GST-UFL1'; source: E. coli BL21, purified (glutathione beads); not shown: GST, N-terminal, kept
T1 sequence (looked up): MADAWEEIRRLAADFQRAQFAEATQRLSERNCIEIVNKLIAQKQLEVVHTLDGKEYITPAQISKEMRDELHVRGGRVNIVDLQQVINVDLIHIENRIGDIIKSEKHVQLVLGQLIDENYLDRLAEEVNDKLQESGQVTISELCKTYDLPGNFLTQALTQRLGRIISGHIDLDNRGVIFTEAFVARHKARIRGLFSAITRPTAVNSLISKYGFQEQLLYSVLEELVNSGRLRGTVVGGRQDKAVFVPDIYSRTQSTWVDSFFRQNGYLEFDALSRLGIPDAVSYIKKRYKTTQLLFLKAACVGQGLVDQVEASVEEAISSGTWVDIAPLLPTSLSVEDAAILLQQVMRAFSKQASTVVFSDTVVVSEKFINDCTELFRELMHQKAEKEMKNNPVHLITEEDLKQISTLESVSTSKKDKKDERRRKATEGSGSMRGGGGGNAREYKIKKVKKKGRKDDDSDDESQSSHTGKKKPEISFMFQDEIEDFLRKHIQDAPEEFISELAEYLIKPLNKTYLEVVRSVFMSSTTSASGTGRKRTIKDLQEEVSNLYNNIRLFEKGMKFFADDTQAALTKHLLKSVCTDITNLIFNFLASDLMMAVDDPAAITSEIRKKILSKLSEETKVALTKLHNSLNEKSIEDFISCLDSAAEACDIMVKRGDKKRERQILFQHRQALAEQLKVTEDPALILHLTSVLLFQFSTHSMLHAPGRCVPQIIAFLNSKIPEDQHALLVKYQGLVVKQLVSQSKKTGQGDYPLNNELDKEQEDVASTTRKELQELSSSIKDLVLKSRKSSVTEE
Kind of assay: pull-down; GST pull-down: purified GST-UFL1 (20 ug) and substrate-Flag-His6 (20 ug) with Glutathione Sepharose 4B beads, 4 °C overnight, 20 mM Tris-Cl, 100 mM NaCl, 5 mM MgCl2, 1 mM EDTA, 1 mM DTT, 0.5% NP-40, 10 ug/mL BSA, pH 7.5; immunoblot. The following applies: both partners purified. In general terms: Immunoblotting shows a protein as a band on a membrane.

B1: MT1M-Flag-His6 (natural protein)
chain: not shown
notes: MT1M, metallothionein family, human; purified recombinant MT1M-Flag-His6; The ends of the tags are read from the printed name; source: E. coli BL21, purified (Ni-NTA beads); not shown: Flag, C-terminal, kept; His6, C-terminal, kept
On to B1, for which the binding result is on record as “binds”.

These data come from paper PMC7352202, “An Integrative Synthetic Biology Approach to Interrogating Cellular Ubiquitin and Ufm Signaling” (International Journal of Molecular Sciences, 2020).
